Reference: the DeepSol protein solubility set

Experiment: soluble on expression in E. coli; label from the status in PepcDB or PDB records

Row | Sequence | soluble on expression in E. coli
1 | IINGEDCSPHSQPWQAALVMENELFCSGVLVHPQWVLSAAHCFQNSYTIGLGLHSLEADQEPGSQMVEASLSVRHPEYNRPLLANDLMLIKLDESVSESDTIRSISIASQCPTAGNSCLVSGWGLLANGRMPTVLQCVNVSVVSEEVCSKLYDPLYHPSMFCAGGGQDQKDSCNGDSGGPLICNGYLQGLVSFGKAPCGQVGVPGVYTNLCKFTEWIEKTVQA | soluble
2 | MIDALLQEKITTRLIDTAPTIPVGVSNRHVHLSQQDVEALFGVGYQLTPFKPLRQPGQFAAEECVTVVGPKGSLTHVRVLGPVRPTSQLEISRADCFTLGIKAPVRESGQLENAGDALLVGPKGHVELHSQVICAWRHIHMSPQDARLLNVSNGQKVSVRSHGERQLTFDEVVVRVRNDFALELHIDTEEANAAGLKNGAQVTLIR | not soluble
3 | MSLIVRRYLKQDLCAVARLEVRSFEIGPYDKEYLREVLENASSISYIAQISDKIVGYIVAMPLNSQEIDIESIATDPDFRKRSIGTRLIARIENESKSLGYRNIILEVRKENIEAISFYSRLGFNIKEFIVNYYEEYYRGSRDAYRMVKSLSEGHHHHHH | not soluble
4 | MGSDKIHHHHHHMAKTIRDESTASAYWAAVNTFCALKDVHVIADAPVGCYNLAGVAVMDYTDAIPYLENLTPTSLTEREISSSGSSQIVQETIEKLMGSGKQLILVSSAESEMIGSDHQHMLAMKYPSVRFFASDSLGENEWQGRDRALAWLFDQFDDGQPSQIEPGTVSIIGPTYGCFNSPADLAEVKRLVTGAGGRVAHVYPFESKAAEITKLKNSAAIVVMYREFGAALAEKLGRPVLYAPFGIEETDRFIGKIGRLCGTPEQATRFIAEEKRTTLSPVWDLWRGPQSEWFPTIRFGVVASKSYADGIKHVLGDELGMQCLFSLDSAEVDNNAVRKEIVQKQPQFLYGRMPDKIYLAEADAKSRFIPAGFPGPIVRRALGTPFMGHSGVVWLVQEIVNALYDTLFNFLPITRRQQAAAPTKPLKWTPEANAILDGIVRKAPFISQISFGRELKRKAENLAASRGADTVTPDILQQLG | not soluble
5 | MGSDKIHHHHHHMNITNNRQYSWVGSREMCLDEISIKQYGEIVIGKYGGNISAGANKNEDGALVWSNGDWEFAAILDGHNSAESVDLVVNTIQKEYENIKEMMNESIDTVFRSIENHILTIFQSSSFKEKCQRIKGETACLLCVRKENYIWWLSIGDCLVYVFHDELHKLGQYALNQRHFYEWIGNVNTFDVPVPCYSSGIRELRTGNNRIVMVTDGVLEYGERRYETPLNLYNDMNRNNIKLEESVHHVLEHVHHQFGRDSATIISWDVENKGKATYPSDQPDKK | not soluble
6 | MSLRPSAPELDHAKRQRLARLPKPVPLGVCTLREQRWVVLDLETSGLNPNRDQVLSIGAVAIEDGAIDFAQQFERTLHRPLQKTNASVLIHGLGPSALAAGCDPAEALLDLLDFIGNSPVLAFHAPFDQRMLARALKETLGHRLQSMFLDVAELAPMLNPDTVLREAGLDDWVARFGLQVEERHHASADAQVTAELALILFSQARRQQLDSPLQLEQRLRGWRRRKMQSHGEGHHHHHH | soluble
7 | MASTANMISQLKKLSIAEPAVAKDSHPDVNIVDLMRNYISQELSKISGVDSSLIFPALEWTNTMERGDLLIPIPRLRIKGANPKDLAVQWAEKFPCGDFLEKVEANGPFIQFFFNPQFLAKLVIPDILTRKEDYGSCKLVENKKVIIEFSSPNIAKPFHAGHLRSTIIGGFLANLYEKLGWEVIRMNYLGDWGKQFGLLAVGFERYGNEEALVKDPIHHLFDVYVRINKDIEEEGDSIPLEQSTNGKAREYFKRMEDGDEEALKIWKRFREFSIEKYIDTYARLNIKYDVYSGESQVSKESMLKAIDLFKEKGLTHEDKGAVLIDLTKFNKKLGKAIVQKSDGTTLYLTRDVGAAMDRYEKYHFDKMIYVIASQQDLHAAQFFEILKQMGFEWAKDLQHVNFGMVQGMSTRKGTVVFLDNILEETKEKMHEVMKKNENKYAQIEHPEEVADLVGISAVMIQDMQGKRINNYEFKWERMLSFEGDTGPYLQYAHSRLRSVERNASGITQEKWINADFSLLKEPAAKLLIRLLGQYPDVLRNAIKTHEPTTVVTYLFKLTHQVSSCYDVLWVAGQTEELATARLALYGAARQVLYNGMRLLGLTPVERM | soluble
8 | MSLAMQDFRPGVYRHYKGDHYLALGLARADETDEVVVVYTRLYARAGLPMSTRLLRIWNETVDTGAGPQPRFAYVGHVTPEQGEGHHHHHH | soluble
9 | VKIFERFRKACDEFFKKKGEFFKLLKEGMNANLEKKKALCEKAESLKDSTEWKETAEILTKLQKEWKTIGPVSKKYS | not soluble
10 | MNMEEITPVDILLQLVKMGKVDPWNIDIVDLTEKYIKMLREMQELDLRISARAILAASILVRMKSEALLRGEEEENKRGEEEKIKVDVDPLVPPLRRVERYYTLDDLIEALMDALEEAEKRKPKKKKKVEIDEEIFVVDDFRVDIEKYVEELYKVVKKIYEKTKTPIKFWDLVPDVEPKIIARTFLYLLFLENMGRVEMIQEEPFGEILVVPV | soluble
11 | TPTTFVHLFEWNWQDVAQECEQYLGPKGYAAVQVSPPNEHITGSQWWTRYQPVSYELQSRGGNRAQFIDMVNRCSAAGVDIYVDTLINHMAAGSGTGTAGNSFGNKSFPIYSPQDFHESCTINNSDYGNDRYRVQNCELVGLADLDTASNYVQNTIAAYINDLQAIGVKGFRFDASKHVAASDIQSLMAKVNGSPVVFQEVIDQGGEAVGASEYLSTGLVTEFKYSTELGNTFRNGSLAWLSNFGEGWGFMPSSSAVVFVDNHDNQRGHGGAGNVITFEDGRLYDLANVFMLAYPYGYPRVMSSYDFHGDTDAGGPNVPVHNNGNLECFASNWKCEHRWSYIAGGVDFRNNTADNWAVTNWWDNTNNQISFGRGSSGHMAINKEDSTLTATVQTDMASGQYCNVLKGELSADAKSCSGEVITVNSDGTINLNIGAWDAMAIHKNAKLNTSSAS | soluble
12 | DLIVTAGGKNVSPGPMEDIIRAHPLVSQAMVVGDGKPFVGLLVTLDPDMLKRWKLNHNIAESRTVSEIATDPALRAEIQDAVNNANATVSHSEAIKRFYILDRDLTEEADELTPTLKVKRNVVVRRYADAIDHIYNR | not soluble
13 | MGSDKIHHHHHHMDILTGKCSDRFMAHVLKRRDQEAVRWYVLTLPTAGGGRDRISPSKGLDAELSRRERRGEALFEYFSPSYVEARKVGGKMVNTRQPLLYNYVFVHASEDEIFRLKRTLPLYNFLPRVSSGGRSYFPYLSDREMDTLRWVAASYSNELPVYVPDSGRLLKGDRVRITSGPFTDMEAEVVVQPGGGHKDVMVRILDCLWVPLFEVRAGEYELIELNTGGKHVYTHLDNDRLSEGLHDALGRYHASGVVVDEDACLAREVLRGYASLRAETDVIRCKLYSLLLPAYLLLGESDEFDRLRSTMRSMLPVIKAGQSRALLLVTLYGCTDSSLYQRMAHELVDPWQEEASPKKSKTVLIRRLRDYDRWLKHNE | not soluble
14 | MGSDKIHHHHHHMFAITGITGQVGGVVARALLAAGKDVRAVVRSAAKGAQWKEQGCEIAVAEMSDTQALSGAFSGVDGVFILLPPNFDPSPDFAESRHLVGTLRDALKQANPPKVVCLSTIGAQAAQPNLLQQLGYMEQQLGSLPMPIAFLRAGWFIENAAWDVEPARTAGVIPSFLQPLDKPVPMVATADVGRVAASMLQQAWTGKRIVELEGPRRITPNDLANTFARLLGKDVRMETVPRDTWEALFKSQGMKNPVPRMQMLDGFNEGWIEFETPDQTIKGNVTLETVLQSLIERVG | not soluble
15 | MFPIHYQFSIIHYPLKKEMKLNLKNPIVFFDLETTGTNINTDRIVEICYLKVYPNGNEETKTMRINPEMHIPEASSAVHGIYDADVADCPTFKEVAKNVARDIEGCDLAGFNSNRFDIPVLAEEFLRAGVDIDMTKRKFVDVQVIFHKMEQRTLSAAYKFYCEKSLEDAHTAEADTRATYEVLKAQLDRYPDLQNDIAFLAEYSSFTKNVDFAGRMVYDDNGVEVFNFGKYKGMSVAEVLKKDPGYYSWILNSDFTLNTKAVLTKIRLREMSNLITK | soluble
16 | MEYTQIPSFALYNNASIFQFFPRNKRLSTHQKSCLDEHARKMAVFMMERQEEYRYYENLANQEQFSDDACFSDTGMDSGFCSGDTSTGQSASTSPAPAHLIPNPFFDPEYVASKTTMKLVANPFYNPKLAKEIKKKSTHTSKFQ | not soluble
17 | MGSDKIHHHHHHMNILVTGGAGFIGSHVVDKLIENGYGVIVVDNLSSGKVENLNRNALFYEQSIEDEEMMERIFSLHRPEYVFHLAAQASVAISVREPARDAKTNIIGSLVLLEKSIKYGVKKFIFSSTGGAIYGENVKVFPTPETEIPHPISPYGIAKYSTEMYLEFFAREYGLKYTVLRYANVYGPRQDPYGEAGVVAIFTERMLRGEEVHIFGDGEYVRDYVYVDDVVRANLLAMEKGDNEVFNIGTGRGTTVNQLFKLLKEITGYDKEPVYKPPRKGDVRKSILDYTKAKEKLGWEPKVSLEEGLKLTVEYFRKTLE | not soluble
18 | MGSDKIHHHHHHMNGNIIVAHGMRHGRQNQALEAFISELVKDDIHHYDIAFLESEHQDLETVMTTLIQSGVDHFKIVPLLIFSAMHYLKDIPNIVHEMKRRYPDIKVEVSEPLGTHPLMRRLIEQRICDALAGDEQQVGVMVVAHGNINGNFTKAHEELQICAQHLQINKPTYARTLYGEISFTHDLESISKRYQKLIVVPLFLYDGRLVNKVKQQMNDMVINTDIHFTPSINFDPILKQIINDRLESLMIPMKI | not soluble
19 | MHSLTSRAPAEPDERLQALKRLIGKVTPQIGLNDVCKTSIPDLTFYRMDKLATPTYCIYEPCVAIILQGAKEITFGEQACEFAQGSFFVTSVDIPTLARVTAASEQTPYLSIVLKLDLSMLNDVIQTQAPLKQEATPEARGFASGMASSEMLDAFARLSALTGQPLEAGLMSDLIKREICVRLLLSCAGQWLRSVTRDGYRDKGIVRAIEWLKLHYDEPLHVAQLAQLSGMASSTLHHNFRKLTGTSPVQYQKSLRLQAARSLMLTERVDVNTAALRVGYESVAQFSREYARRFGAPPSRDIKYAREAGGRRD | not soluble
20 | MRKIGIIGGTFDPPHYGHLLIANEVYHALNLEEVWFLPNQIPPHKQGRNITSVESRLQMLELATEAEEHFSICLEELSRKGPSYTYDTMLQLTKKYPDVQFHFIIGGDMVEYLPKWYNIEALLDLVTFVGVARPGYKLRTPYPITTVEIPEFAVSSSLLRERYKEKKTCKYLLPEKVQVYIERNGLYESLAAALEHHHHHH | soluble
21 | MGSDKIHHHHHHMHIADITMFYAPASGGVRTYLEAKRNRLAKLPGVTSSLLVPGAYHRSHGSIHEVPAPPLPFSQGYRFPLKRRGWQRELHRLAPDLIEAGDPYVTAWAALDAGRALDVPVVGFYHSDLPRLIGNRLGNWTRAALDRYVRNLYGHCDRVLAPSRVIADRLQTLGLDNVAVQPLGVDLTTFSPQRRQFAFRQRLGLDDDTRLLIFVGRGSREKNLSVLLDTARHLGKGYHLVLIGPQMPQRVPDNVSVIGRYTATADVADWLASSDILLHAGTQETFGLVALEAMASGIPVVAARAGALAENVPLGCGRLCEPHSAQDMARAVRELCADAPEEQGRRARQHVERHHDWDIVVSSLMHHYRELTGQRVNTESLQHG | not soluble
22 | GEERKCLQTHRVTVHGVPGPEPFTVFTINGGTKAKQLLQQILTNEQDIKPVTTDYFLMEEKYFISKEKNECRKQPFQRAIGPEEEIMQILSSWFPEEGYMGRIVLKTQQE | soluble
23 | SLWYYLFKYIFMGPLFTLLGRPKVEGLEYIPSSGPAILASNHLAVADSFYLPLVVRRRIWFLAKSEYFTGTGLKGWINRWFYSVSGQVPIDRTNADSAQGALQTAVVLLGQGKLLGMYPEGTRSPDGRLYKGKTGLARLALHTGVPVIPVAMIGTNVVNPPGRKMLRFGRVTVRFGKPMDFSRFEGLAGNHFIERAVTDEVIYELMGLSGQEYVDIYAASVKDGRNAGGAGANPNSTDAARIPETAAEG | not soluble
